B1: equine IgG1 G426A (antibody, part only; not given: variable domains, not shown: another chain or arm of the molecule)
constant: ASTTAPKVFALAPGCGTTSDSTVALGCLVSGYFPEPVKVSWNSGSLTSGVHTFPSVLQSSGFYSLSSMVTVPASTWTSETYICNVVHAASNFKVDKRIEPIPDNHQKVCDMSKCPKCPAPELLGGPSVFIFPPNPKDTLMITRTPEVTCVVVDVSQENPDVKFNWYMDGVEVRTATTRPKEEQFNSTYRVVSVLRIQHQDWLSGKEFKCKVNNQALPQPIERTITKTKGRSQEPQVYVLAPHPDELSKSKVSVTCLVKDFYPPEINIEWQSNGQPELETKYSTTQAQQDSDGSYFLYSKLSVDRNRWQQGTTFTCAVMHEALHNHYTQKNVSKNPGK
B2: equine IgG1 G426H (antibody, part only; not given: variable domains, not shown: another chain or arm of the molecule)
constant: ASTTAPKVFALAPGCGTTSDSTVALGCLVSGYFPEPVKVSWNSGSLTSGVHTFPSVLQSSGFYSLSSMVTVPASTWTSETYICNVVHAASNFKVDKRIEPIPDNHQKVCDMSKCPKCPAPELLGGPSVFIFPPNPKDTLMITRTPEVTCVVVDVSQENPDVKFNWYMDGVEVRTATTRPKEEQFNSTYRVVSVLRIQHQDWLSGKEFKCKVNNQALPQPIERTITKTKGRSQEPQVYVLAPHPDELSKSKVSVTCLVKDFYPPEINIEWQSNGQPELETKYSTTQAQQDSDGSYFLYSKLSVDRNRWQQGTTFTCHVMHEALHNHYTQKNVSKNPGK
B3: equine IgG1 G426F (antibody, part only; not given: variable domains, not shown: another chain or arm of the molecule)
constant: ASTTAPKVFALAPGCGTTSDSTVALGCLVSGYFPEPVKVSWNSGSLTSGVHTFPSVLQSSGFYSLSSMVTVPASTWTSETYICNVVHAASNFKVDKRIEPIPDNHQKVCDMSKCPKCPAPELLGGPSVFIFPPNPKDTLMITRTPEVTCVVVDVSQENPDVKFNWYMDGVEVRTATTRPKEEQFNSTYRVVSVLRIQHQDWLSGKEFKCKVNNQALPQPIERTITKTKGRSQEPQVYVLAPHPDELSKSKVSVTCLVKDFYPPEINIEWQSNGQPELETKYSTTQAQQDSDGSYFLYSKLSVDRNRWQQGTTFTCFVMHEALHNHYTQKNVSKNPGK
B4: equine IgG1 G426L (antibody, part only; not given: variable domains, not shown: another chain or arm of the molecule)
constant: ASTTAPKVFALAPGCGTTSDSTVALGCLVSGYFPEPVKVSWNSGSLTSGVHTFPSVLQSSGFYSLSSMVTVPASTWTSETYICNVVHAASNFKVDKRIEPIPDNHQKVCDMSKCPKCPAPELLGGPSVFIFPPNPKDTLMITRTPEVTCVVVDVSQENPDVKFNWYMDGVEVRTATTRPKEEQFNSTYRVVSVLRIQHQDWLSGKEFKCKVNNQALPQPIERTITKTKGRSQEPQVYVLAPHPDELSKSKVSVTCLVKDFYPPEINIEWQSNGQPELETKYSTTQAQQDSDGSYFLYSKLSVDRNRWQQGTTFTCLVMHEALHNHYTQKNVSKNPGK
B5: equine IgG1 G426D (antibody, part only; not given: variable domains, not shown: another chain or arm of the molecule)
constant: ASTTAPKVFALAPGCGTTSDSTVALGCLVSGYFPEPVKVSWNSGSLTSGVHTFPSVLQSSGFYSLSSMVTVPASTWTSETYICNVVHAASNFKVDKRIEPIPDNHQKVCDMSKCPKCPAPELLGGPSVFIFPPNPKDTLMITRTPEVTCVVVDVSQENPDVKFNWYMDGVEVRTATTRPKEEQFNSTYRVVSVLRIQHQDWLSGKEFKCKVNNQALPQPIERTITKTKGRSQEPQVYVLAPHPDELSKSKVSVTCLVKDFYPPEINIEWQSNGQPELETKYSTTQAQQDSDGSYFLYSKLSVDRNRWQQGTTFTCDVMHEALHNHYTQKNVSKNPGK
B6: equine IgG1 G426C (antibody, part only; not given: variable domains, not shown: another chain or arm of the molecule)
constant: ASTTAPKVFALAPGCGTTSDSTVALGCLVSGYFPEPVKVSWNSGSLTSGVHTFPSVLQSSGFYSLSSMVTVPASTWTSETYICNVVHAASNFKVDKRIEPIPDNHQKVCDMSKCPKCPAPELLGGPSVFIFPPNPKDTLMITRTPEVTCVVVDVSQENPDVKFNWYMDGVEVRTATTRPKEEQFNSTYRVVSVLRIQHQDWLSGKEFKCKVNNQALPQPIERTITKTKGRSQEPQVYVLAPHPDELSKSKVSVTCLVKDFYPPEINIEWQSNGQPELETKYSTTQAQQDSDGSYFLYSKLSVDRNRWQQGTTFTCCVMHEALHNHYTQKNVSKNPGK
B7: equine IgG1 G426S (antibody, part only; not given: variable domains, not shown: another chain or arm of the molecule)
constant: ASTTAPKVFALAPGCGTTSDSTVALGCLVSGYFPEPVKVSWNSGSLTSGVHTFPSVLQSSGFYSLSSMVTVPASTWTSETYICNVVHAASNFKVDKRIEPIPDNHQKVCDMSKCPKCPAPELLGGPSVFIFPPNPKDTLMITRTPEVTCVVVDVSQENPDVKFNWYMDGVEVRTATTRPKEEQFNSTYRVVSVLRIQHQDWLSGKEFKCKVNNQALPQPIERTITKTKGRSQEPQVYVLAPHPDELSKSKVSVTCLVKDFYPPEINIEWQSNGQPELETKYSTTQAQQDSDGSYFLYSKLSVDRNRWQQGTTFTCSVMHEALHNHYTQKNVSKNPGK
B8: equine IgG1 G426M (antibody, part only; not given: variable domains, not shown: another chain or arm of the molecule)
constant: ASTTAPKVFALAPGCGTTSDSTVALGCLVSGYFPEPVKVSWNSGSLTSGVHTFPSVLQSSGFYSLSSMVTVPASTWTSETYICNVVHAASNFKVDKRIEPIPDNHQKVCDMSKCPKCPAPELLGGPSVFIFPPNPKDTLMITRTPEVTCVVVDVSQENPDVKFNWYMDGVEVRTATTRPKEEQFNSTYRVVSVLRIQHQDWLSGKEFKCKVNNQALPQPIERTITKTKGRSQEPQVYVLAPHPDELSKSKVSVTCLVKDFYPPEINIEWQSNGQPELETKYSTTQAQQDSDGSYFLYSKLSVDRNRWQQGTTFTCMVMHEALHNHYTQKNVSKNPGK
B9: equine IgG1 G426I (antibody, part only; not given: variable domains, not shown: another chain or arm of the molecule)
constant: ASTTAPKVFALAPGCGTTSDSTVALGCLVSGYFPEPVKVSWNSGSLTSGVHTFPSVLQSSGFYSLSSMVTVPASTWTSETYICNVVHAASNFKVDKRIEPIPDNHQKVCDMSKCPKCPAPELLGGPSVFIFPPNPKDTLMITRTPEVTCVVVDVSQENPDVKFNWYMDGVEVRTATTRPKEEQFNSTYRVVSVLRIQHQDWLSGKEFKCKVNNQALPQPIERTITKTKGRSQEPQVYVLAPHPDELSKSKVSVTCLVKDFYPPEINIEWQSNGQPELETKYSTTQAQQDSDGSYFLYSKLSVDRNRWQQGTTFTCIVMHEALHNHYTQKNVSKNPGK
B10: equine IgG1 G426Q (antibody, part only; not given: variable domains, not shown: another chain or arm of the molecule)
constant: ASTTAPKVFALAPGCGTTSDSTVALGCLVSGYFPEPVKVSWNSGSLTSGVHTFPSVLQSSGFYSLSSMVTVPASTWTSETYICNVVHAASNFKVDKRIEPIPDNHQKVCDMSKCPKCPAPELLGGPSVFIFPPNPKDTLMITRTPEVTCVVVDVSQENPDVKFNWYMDGVEVRTATTRPKEEQFNSTYRVVSVLRIQHQDWLSGKEFKCKVNNQALPQPIERTITKTKGRSQEPQVYVLAPHPDELSKSKVSVTCLVKDFYPPEINIEWQSNGQPELETKYSTTQAQQDSDGSYFLYSKLSVDRNRWQQGTTFTCQVMHEALHNHYTQKNVSKNPGK
B11: equine IgG1 G426N (antibody, part only; not given: variable domains, not shown: another chain or arm of the molecule)
constant: ASTTAPKVFALAPGCGTTSDSTVALGCLVSGYFPEPVKVSWNSGSLTSGVHTFPSVLQSSGFYSLSSMVTVPASTWTSETYICNVVHAASNFKVDKRIEPIPDNHQKVCDMSKCPKCPAPELLGGPSVFIFPPNPKDTLMITRTPEVTCVVVDVSQENPDVKFNWYMDGVEVRTATTRPKEEQFNSTYRVVSVLRIQHQDWLSGKEFKCKVNNQALPQPIERTITKTKGRSQEPQVYVLAPHPDELSKSKVSVTCLVKDFYPPEINIEWQSNGQPELETKYSTTQAQQDSDGSYFLYSKLSVDRNRWQQGTTFTCNVMHEALHNHYTQKNVSKNPGK
B12: equine IgG1 G426R (antibody, part only; not given: variable domains, not shown: another chain or arm of the molecule)
constant: ASTTAPKVFALAPGCGTTSDSTVALGCLVSGYFPEPVKVSWNSGSLTSGVHTFPSVLQSSGFYSLSSMVTVPASTWTSETYICNVVHAASNFKVDKRIEPIPDNHQKVCDMSKCPKCPAPELLGGPSVFIFPPNPKDTLMITRTPEVTCVVVDVSQENPDVKFNWYMDGVEVRTATTRPKEEQFNSTYRVVSVLRIQHQDWLSGKEFKCKVNNQALPQPIERTITKTKGRSQEPQVYVLAPHPDELSKSKVSVTCLVKDFYPPEINIEWQSNGQPELETKYSTTQAQQDSDGSYFLYSKLSVDRNRWQQGTTFTCRVMHEALHNHYTQKNVSKNPGK
B13: equine IgG1 G426K (antibody, part only; not given: Variable domains, not shown: another chain or arm of the molecule)
constant: ASTTAPKVFALAPGCGTTSDSTVALGCLVSGYFPEPVKVSWNSGSLTSGVHTFPSVLQSSGFYSLSSMVTVPASTWTSETYICNVVHAASNFKVDKRIEPIPDNHQKVCDMSKCPKCPAPELLGGPSVFIFPPNPKDTLMITRTPEVTCVVVDVSQENPDVKFNWYMDGVEVRTATTRPKEEQFNSTYRVVSVLRIQHQDWLSGKEFKCKVNNQALPQPIERTITKTKGRSQEPQVYVLAPHPDELSKSKVSVTCLVKDFYPPEINIEWQSNGQPELETKYSTTQAQQDSDGSYFLYSKLSVDRNRWQQGTTFTCKVMHEALHNHYTQKNVSKNPGK
B14: equine IgG1 G426E (antibody, part only; not given: Variable domains, not shown: another chain or arm of the molecule)
constant: ASTTAPKVFALAPGCGTTSDSTVALGCLVSGYFPEPVKVSWNSGSLTSGVHTFPSVLQSSGFYSLSSMVTVPASTWTSETYICNVVHAASNFKVDKRIEPIPDNHQKVCDMSKCPKCPAPELLGGPSVFIFPPNPKDTLMITRTPEVTCVVVDVSQENPDVKFNWYMDGVEVRTATTRPKEEQFNSTYRVVSVLRIQHQDWLSGKEFKCKVNNQALPQPIERTITKTKGRSQEPQVYVLAPHPDELSKSKVSVTCLVKDFYPPEINIEWQSNGQPELETKYSTTQAQQDSDGSYFLYSKLSVDRNRWQQGTTFTCEVMHEALHNHYTQKNVSKNPGK
B15: equine IgG1 M252Y (antibody, part only; not given: variable domains, not shown: another chain or arm of the molecule)
constant: ASTTAPKVFALAPGCGTTSDSTVALGCLVSGYFPEPVKVSWNSGSLTSGVHTFPSVLQSSGFYSLSSMVTVPASTWTSETYICNVVHAASNFKVDKRIEPIPDNHQKVCDMSKCPKCPAPELLGGPSVFIFPPNPKDTLYITRTPEVTCVVVDVSQENPDVKFNWYMDGVEVRTATTRPKEEQFNSTYRVVSVLRIQHQDWLSGKEFKCKVNNQALPQPIERTITKTKGRSQEPQVYVLAPHPDELSKSKVSVTCLVKDFYPPEINIEWQSNGQPELETKYSTTQAQQDSDGSYFLYSKLSVDRNRWQQGTTFTCGVMHEALHNHYTQKNVSKNPGK
B16: equine IgG1 G426P (antibody, part only; not given: variable domains, not shown: another chain or arm of the molecule)
constant: ASTTAPKVFALAPGCGTTSDSTVALGCLVSGYFPEPVKVSWNSGSLTSGVHTFPSVLQSSGFYSLSSMVTVPASTWTSETYICNVVHAASNFKVDKRIEPIPDNHQKVCDMSKCPKCPAPELLGGPSVFIFPPNPKDTLMITRTPEVTCVVVDVSQENPDVKFNWYMDGVEVRTATTRPKEEQFNSTYRVVSVLRIQHQDWLSGKEFKCKVNNQALPQPIERTITKTKGRSQEPQVYVLAPHPDELSKSKVSVTCLVKDFYPPEINIEWQSNGQPELETKYSTTQAQQDSDGSYFLYSKLSVDRNRWQQGTTFTCPVMHEALHNHYTQKNVSKNPGK

Target: equine FcRn (large alpha subunit p51) / equine beta-2-microglobulin complex, biotinylated (equine) (UniProt P30441)
UniProt P30441, sequence (P30441 21-118, one chain of several): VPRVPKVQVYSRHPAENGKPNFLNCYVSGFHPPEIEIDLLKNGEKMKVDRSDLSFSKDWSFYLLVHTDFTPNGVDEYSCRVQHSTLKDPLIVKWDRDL
Assay: SPR (Biacore), pH 6

Binder	Kd
B1	17.6 nM
B2	12.8 nM
B3	13.1 nM
B4	9.61 nM
B5	25.3 nM
B6	20.4 nM
B7	8.97 nM
B8	9.09 nM
B9	9.47 nM
B10	9.01 nM
B11	10.3 nM
B12	10.3 nM
B13	9.3 nM
B14	24.1 nM
B15	19.3 nM
B16	23.9 nM
